B1: library; a variant is named by its letters at N, in order (parent)
chain: ACATTTGTTGATACAACCATAAAATGATAATTACACCCATAAATTGATAATTATCACACCCANNNNNNNNNNNNNNCTCTGATCATAGTCAGACCAACATTGCTACGACCCGTATTCGCACCGACAC

The variants in data set [1] derive from B1. Nature of the data set: relative integration efficiency (T-RL orientation) vs wild-type transposon end (log2 (normalized fold change)); transposon end mutated: right end (5 bp flank + 75 bp right end); higher = more efficient transposition. Conditions: with VchCAST RNA-guided transposition machinery (E. coli BL21(DE3) host, lacZ target). The method, then:
(§1)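 Pooled, barcoded VchCAST (Tn6677) mini-transposon donor libraries; each variable transposon-end sequence sits in a fixed pDonor mini-transposon context (10-bp barcode and cargo not included). Left- or right-end libraries were co-transformed with pEffector (TniQ-Cascade, TnsABC, lacZ crRNA, T7, 0.1 mM IPTG) into E. coli BL21(DE3) and grown 18 h at 37 C. T-LR and T-RL junction amplicons were sequenced; output/input barcode fold change was normalised to the mean of four wild-type barcodes and log2-transformed. Two biological replicates; zero-count/undetected variants carry floor values (-10 / -15), censored here. Barcode uncoupling by PCR recombination adds noise.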

The variants in data set [2] derive from B1. Nature of the data set: relative integration efficiency (T-LR orientation) vs wild-type transposon end (log2 (normalized fold change)); transposon end mutated: right end (5 bp flank + 75 bp right end); higher = more efficient transposition. Conditions: with VchCAST RNA-guided transposition machinery (E. coli BL21(DE3) host, lacZ target). As for the experimental part:
as §1

Consider 57 variants from the supplement of paper PMC10201428.

± gives the standard deviation of the averaged measurements.

As to TAAATTGATAAACG, the “relative integration efficiency (log2)” value was -0.208 ± 0.021 in data set [1] and 0.342 ± 0.21 in data set [2].
The matching figures for TAAATTGATAATGC: 0.111 ± 0.029 and 0.354 ± 0.21.
As to TAAATTGATATTGC A19T, the “relative integration efficiency (log2)” value in data set [1] is -0.574 ± 0.03; in data set [2], -0.267 ± 0.084.
The matching figures for TAAATTGATATTGC A19G: -0.155 ± 0.081 and -0.378 ± 0.051.
For TAAATTGATATTGC A19C, the “relative integration efficiency (log2)” value was -1.18 ± 0.12 in data set [1] and -1.16 ± 0.11 in data set [2].
Consider TAAAGGTCTATTGC, for which the “relative integration efficiency (log2)” value in data set [1] is -0.635 ± 0.042; in data set [2], 2.17 ± 0.33.
TAAATTGATATGGC: the “relative integration efficiency (log2)” value in data set [1] was found to be 0.087 ± 0.065; in data set [2], 0.317 ± 0.14.
The matching figures for TAAATTGAATAAGC: -0.554 ± 0.076 and 1.55 ± 0.079.
Consider TAAATTGATAATTA, for which the results for the “relative integration efficiency (log2)” value in data set [1] and in data set [2] were 0.000518 ± 0.059 and 0.0298 ± 0.42, respectively.
In the case of TAAACTGATATTGC, the “relative integration efficiency (log2)” value in data set [1] is -0.0927 ± 0.037; in data set [2], 0.318 ± 0.14.
For the variant TAAATAGATATTGC, the “relative integration efficiency (log2)” value in data set [1] was -0.222 ± 0.0045; in data set [2], 1.53 ± 0.13.
The matching figures for GAAATTGATATTGC: -0.446 ± 0.11 and 2.2 ± 0.046.
Consider TAAATACATATTGC, for which the “relative integration efficiency (log2)” value in data set [1] was -0.637 ± 0.26; in data set [2], 2.3 ± 0.041.
Regarding TAAATTGAGCGGGC, the results for the “relative integration efficiency (log2)” value in data set [1] and in data set [2] were -0.15 ± 0.012 and 2.13 ± 0.086, respectively.
For TAAATTCATATTGC, the entries for the “relative integration efficiency (log2)” value in data set [1] and in data set [2] were -0.149 ± 0.23 and 2.62 ± 0.096, respectively.
TAAATGTATATTGC: the “relative integration efficiency (log2)” value in data set [1] is -0.000422 ± 0.028; in data set [2], 2.416 ± 0.0088.
As to AAAATTGATATTGC, the “relative integration efficiency (log2)” value in data set [1] is -0.0332 ± 0.012; in data set [2] it was 0.998 ± 0.085.
Take TAAAAACTTATTGC: the figures for the “relative integration efficiency (log2)” value in data set [1] and in data set [2] were -0.368 ± 0.07 and 2.34 ± 0.09, respectively.
For TAAATTGAGCTTGC, the “relative integration efficiency (log2)” value in data set [1] was -0.264 ± 0.034; in data set [2], 1.51 ± 0.32.
CAAATTGATATTGC: the “relative integration efficiency (log2)” value in data set [1] was -0.643 ± 0.087; in data set [2], 1.861 ± 0.015.
The matching figures for TAAATTCTTATTGC: -0.485 ± 0.094 and 2.36 ± 0.24.
As to TAAATTGATATTGC A22T, the “relative integration efficiency (log2)” value in data set [1] was -0.215 ± 0.042; in data set [2], -0.148 ± 0.0031.
Consider TAAATTGATATTGC A22G, for which the “relative integration efficiency (log2)” value in data set [1] is -0.771 ± 0.018; in data set [2], -1.09 ± 0.47.
As for TAAATTGATATTGC A22C, the “relative integration efficiency (log2)” value in data set [1] was -0.874 ± 0.074; in data set [2] it was -1.72 ± 0.82.
For TAAATTGATATTGC A3C, the figures for the “relative integration efficiency (log2)” value in data set [1] and in data set [2] were -0.109 ± 0.047 and -0.337 ± 0.37, respectively.
For TAAATTGATATTGC A3G, the “relative integration efficiency (log2)” value in data set [1] amounted to 0.00116 ± 0.033; in data set [2], 0.0517 ± 0.23.
For the variant TAAATTGATATTGC A3T, the “relative integration efficiency (log2)” value in data set [1] was -0.114 ± 0.0076; in data set [2], -0.195 ± 0.15.
TAAATTGATATAGC: the “relative integration efficiency (log2)” value is -0.0924 ± 0.038 in data set [1] and 0.0501 ± 0.056 in data set [2].
Regarding TAAATTGAGATTGC, the “relative integration efficiency (log2)” value is -0.3392 ± 0.00035 in data set [1] and 0.765 ± 0.23 in data set [2].
With TAAATTGATATTGA C77A, the “relative integration efficiency (log2)” value in data set [1] was found to be 0.00362 ± 0.0095; in data set [2], 0.066 ± 0.4.
The matching figures for TAAATTGATATGTA C77A: -0.158 ± 0.089 and 0.332 ± 0.19.
As for TAAATTGATATACG C77G, the entries for the “relative integration efficiency (log2)” value in data set [1] and in data set [2] were 0.221 ± 0.0027 and 0.3 ± 0.0057, respectively.
TAAATTGATATTAC: the “relative integration efficiency (log2)” value in data set [1] is -0.14 ± 0.1; in data set [2], 0.0276 ± 0.11.
The matching figures for TAAATTGATATTGC A1T: -0.0487 ± 0.062 and -0.0517 ± 0.26.
Take TAAATTGATATTGC A1G: the “relative integration efficiency (log2)” value is -0.139 ± 0.068 in data set [1] and -0.251 ± 0.32 in data set [2].
With TAAATTGATATTGC A1C, the results for the “relative integration efficiency (log2)” value in data set [1] and in data set [2] were -0.117 ± 0.016 and -0.165 ± 0.27, respectively.
Regarding TAAATTGATATTGC A24G, the “relative integration efficiency (log2)” value in data set [1] came to 0.266 ± 0.047; in data set [2], 0.156 ± 0.052.
As to TAAATTGATATTGC A24C, the “relative integration efficiency (log2)” value came out at 0.238 ± 0.12 in data set [1] and 0.1 ± 0.21 in data set [2].
As to TAAATTGATATTGC A16C, the “relative integration efficiency (log2)” value was -0.0617 ± 0.0049 in data set [1] and 0.0173 ± 0.062 in data set [2].
With TAAATTGATATTGC A16T, the “relative integration efficiency (log2)” value is -0.582 ± 0.072 in data set [1] and -0.311 ± 0.2 in data set [2].
The matching figures for TAAATTGATATTGC A16G: -0.119 ± 0.073 and -0.0536 ± 0.39.
Consider TAAAGTGATATTGC, for which the “relative integration efficiency (log2)” value came out at 0.000666 ± 0.021 in data set [1] and 0.119 ± 0.27 in data set [2].
On to TAAATTAATATTGC, for which the “relative integration efficiency (log2)” value in data set [1] was -0.319 ± 0.15; in data set [2], 1.63 ± 0.083.
The matching figures for TAAATTGATAGGTA: -0.219 ± 0.01 and 1.09 ± 0.099.
In the case of TAAATTGATAGTGC, the figures for the “relative integration efficiency (log2)” value in data set [1] and in data set [2] were -0.0439 ± 0.022 and 0.754 ± 0.013, respectively.
With TAAATTGATATGTC, the entries for the “relative integration efficiency (log2)” value in data set [1] and in data set [2] were -0.17 ± 0.058 and 0.485 ± 0.25, respectively.
As for TAAAAAGATATTGC, the “relative integration efficiency (log2)” value in data set [1] was -0.0646 ± 0.032; in data set [2] it was 1.04 ± 0.075.
In the case of TAAATTGAAATTGC, the entries for the “relative integration efficiency (log2)” value in data set [1] and in data set [2] were -0.187 ± 0.13 and 1.06 ± 0.27, respectively.
Take TAAAATGATATTGC: the figures for the “relative integration efficiency (log2)” value in data set [1] and in data set [2] were 0.0615 ± 0.025 and 0.274 ± 0.058, respectively.
In the case of TAAATTGATATTGC A21G, the “relative integration efficiency (log2)” value in data set [1] is -0.564 ± 0.14; in data set [2] it was -1.31 ± 0.14.
For TAAATTGATATTGC A21C, the “relative integration efficiency (log2)” value in data set [1] was -0.283 ± 0.04; in data set [2], -0.846 ± 0.23.
Regarding TAAATTGATATTGC A21T, the “relative integration efficiency (log2)” value in data set [1] is 0.0476 ± 0.12; in data set [2], -0.217 ± 0.052.
The matching figures for TAAATTGACATTGC: -0.167 ± 0.015 and 0.353 ± 0.12.
The matching figures for TAAATGTCGATTGC: -0.671 ± 0.07 and 2.165 ± 0.0045.
For TAAATTGATATTGC A11G, the “relative integration efficiency (log2)” value was -0.0551 ± 0.029 in data set [1] and -0.5 ± 0.17 in data set [2].
Regarding TAAATTGATATTGC A11T, the “relative integration efficiency (log2)” value in data set [1] was 0.176 ± 0.055; in data set [2], -0.678 ± 0.051.
TAAATTGATATTGC A11C: the “relative integration efficiency (log2)” value in data set [1] was 0.342 ± 0.021; in data set [2] it was -0.681 ± 0.56.
